Positions count from the first letter of the chain named.

Data on four molecules can be found in US20240190989A1 (BEIGENE SWITZERLAND, published 2024).

The target of assay [1] is T1, full-length human CD137 on cells (Hut78/huCD137, HEK293 transfectants, JK-NFKB-CD137) (human, UniProt Q07011 24-255).
T1 construct: also called native CD137; TNFRSF9
Description: flow cytometry competition on Hut78/huCD137 cells: serially diluted human CD137 ligand-mIgG2a against BGA-4712 VH-Fc, bound VH-Fc detected with anti-hu IgG Fc [panel B]. On the technique in general: A flow cytometer gives signals particle by particle.

Assay [2] concerns the target T2, human CD137 ECD-mIgG2a (human).
T2 construct: ECD 24-183 of huCD137 fused to mouse IgG2a Fc; also called huCD137-mIgG2a; huCD137
Briefly: competition ELISA on coated human CD137 ECD-mIgG2a: serially diluted human CD137 ligand ECD-mIgG2a against BGA-5623 (IgG4), bound antibody detected with anti-human IgG-HRP [panel A]. For orientation: An ELISA detects its analyte on a solid surface through an enzyme-linked reagent.

The target in assay [3] is T1, full-length human CD137 on cells …. Briefly: flow cytometry on Hut78/huCD137 cells [panel B].
In assay [4] the target is T3, full-length human CEA on cells (MKN45, LOVO, L929/huCEA, CT26/CEA, CT26-OS8-CEA) (human, UniProt P06731 35-685).
T3 construct: also called CEACAM5; native CEA
T3 sequence: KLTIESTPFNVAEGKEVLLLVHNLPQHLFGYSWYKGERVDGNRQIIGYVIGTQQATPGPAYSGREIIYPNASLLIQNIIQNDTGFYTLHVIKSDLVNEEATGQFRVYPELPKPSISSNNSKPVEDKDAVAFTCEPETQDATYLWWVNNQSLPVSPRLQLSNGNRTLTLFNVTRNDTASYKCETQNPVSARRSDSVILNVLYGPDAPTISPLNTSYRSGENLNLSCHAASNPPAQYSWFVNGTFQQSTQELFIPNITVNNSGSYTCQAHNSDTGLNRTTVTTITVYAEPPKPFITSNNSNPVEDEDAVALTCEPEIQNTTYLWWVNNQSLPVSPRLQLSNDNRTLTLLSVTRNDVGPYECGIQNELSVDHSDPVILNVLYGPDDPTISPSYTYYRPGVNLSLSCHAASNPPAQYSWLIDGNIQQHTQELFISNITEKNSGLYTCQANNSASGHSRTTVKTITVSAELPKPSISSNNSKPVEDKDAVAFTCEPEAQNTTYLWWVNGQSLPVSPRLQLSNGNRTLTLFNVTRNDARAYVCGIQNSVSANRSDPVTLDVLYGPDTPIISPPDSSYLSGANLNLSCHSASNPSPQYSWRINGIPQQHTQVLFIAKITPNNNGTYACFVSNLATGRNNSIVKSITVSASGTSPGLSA
Briefly: flow cytometry on CT26/CEA cells [panel A].

The target of assay [5] is T1, full-length human CD137 on cells …. Briefly: flow cytometry on Hut78/huCD137 cells [panel A].
Assay [6] has as its target T2, human CD137 ECD-mIgG2a. Briefly: SPR, Fc-fusion VH captured. (In general: SPR reads the build-up and loss of mass on a sensor chip optically.)
The target in assay [7] is T1, full-length human CD137 on cells …. Briefly: flow cytometry on Hut78/huCD137 cells.

T1 sequence (Q07011 24-255 limits assumed): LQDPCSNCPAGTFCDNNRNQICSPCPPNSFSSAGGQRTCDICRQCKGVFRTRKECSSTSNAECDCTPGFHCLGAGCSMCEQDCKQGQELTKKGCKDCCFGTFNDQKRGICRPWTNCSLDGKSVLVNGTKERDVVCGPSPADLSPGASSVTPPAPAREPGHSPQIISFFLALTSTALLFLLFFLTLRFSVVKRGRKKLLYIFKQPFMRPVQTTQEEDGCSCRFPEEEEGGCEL
T2 sequence (chain, as listed by the source limits assumed): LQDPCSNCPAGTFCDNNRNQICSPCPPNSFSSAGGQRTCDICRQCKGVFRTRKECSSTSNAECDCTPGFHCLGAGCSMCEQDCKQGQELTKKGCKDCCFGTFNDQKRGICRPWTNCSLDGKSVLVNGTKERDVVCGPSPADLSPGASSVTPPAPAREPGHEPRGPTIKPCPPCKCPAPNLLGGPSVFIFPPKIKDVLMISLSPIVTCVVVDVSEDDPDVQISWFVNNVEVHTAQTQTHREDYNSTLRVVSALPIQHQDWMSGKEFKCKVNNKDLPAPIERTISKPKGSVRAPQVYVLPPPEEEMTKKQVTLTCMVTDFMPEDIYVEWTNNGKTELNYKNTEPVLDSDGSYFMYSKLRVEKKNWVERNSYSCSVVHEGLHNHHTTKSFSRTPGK

B1: human CD137 ligand-mIgG2a (Fc fusion)
chain: EPRGPTIKPCPPCKCPAPNLLGGPSVFIFPPKIKDVLMISLSPIVTCVVVDVSEDDPDVQISWFVNNVEVHTAQTQTHREDYNSTLRVVSALPIQHQDWMSGKEFKCKVNNKDLPAPIERTISKPKGSVRAPQVYVLPPPEEEMTKKQVTLTCMVTDFMPEDIYVEWTNNGKTELNYKNTEPVLDSDGSYFMYSKLRVEKKNWVERNSYSCSVVHEGLHNHHTTKSFSRTPGKGGGGSREGPELSPDDPAGLLDLRQGMFAQLVAQNVLLIDGPLSWYSDPGLAGVSLTGGLSYKEDTKELVVAKAGVYYVFFQLELRRVVAGEGSGSVSLALHLQPLRSAAGAAALALTVDLPPASSEARNSAFGFQGRLLHLSAGQRLGVHLHTEARARHAWQLTQGATVLGLFRVTPEIPAGLPSPRSE
notes: also called human CD137 ligand ECD-mIgG2a; huCD137 ligand
In the case of B1, the results for the “IC50 (read off the curve)” value (in assay [1]; with human CD137 ECD-mIgG2a [2]) were approximately 0.4 mg/L and approximately 1 mg/L, respectively.

B2: anti-CEA Ab (IgG1) (antibody, V domains shown)
VH: QVQLVQSGAEVKKPGASVKVSCKASGYIFTSYYLHWVRQAPGQGLEWIGYINPQTGKTSYAQKFQGRVTMTRDTSTSTVYMELSSLRSEDTAVYYCAREYGNYNYPLDYWGQGTLVTVSS
VL: DIQMTQSPSSLSASVGDRVTITCRASENQYGYLAWYQQKPGKVPKLLIYNYKNLVEGVPSRFSGSGSGTDFTLTISSLQPEDVATYYCQHHLGTPYTFGQGTKVEIKR
Turning to B2, in assay [3], the binding result is reported as “no binding (tested: last point just above 10^2 ug/ml)”.

B3: BGA-4712 (anti-huCD137 VH domain antibody as VH-Fc with inert human IgG1 Fc) (Fc fusion)
chain: EVQLLESGGGLVQPGGSLRLSCAASGFMLSAEDVGWVRQAPGKGLEWVSAILDFGGSTYYADSVKGRFTISRDNSKNTLYLQMNSLRAEDTAVYYCARVVYHAGGGVTFDYWGQGTLVTVSSGGGGSDKTHTCPPCPAPPAAGPSVFLFPPKPKDTLMISRTPEVTCVVVDVSHEDPEVKFNWYVDGVEVHNAKTKPREEQYNSTYRVVSVLTVLHQDWLNGKEYKCKVSNKALAAPIEKTISKAKGQPREPQVYTLPPSREEMTKNQVSLTCLVKGFYPSDIAVEWESNGQPENNYKTTPPVLDSDGSFFLYSKLTVDKSRWQQGNVFSCSVMHEALHNHYTQKSLSLSPGK
By EC50 (read off the curve) is commonly meant the concentration needed to bring the measured effect to its halfway point. Read a high EC50 (read off the curve) as lower potency in that assay. As to B3, the binding result in assay [4] is reported as “no binding (tested: last point just above 10^2 ug/ml)”. Moreover, the “EC50 (read off the curve)” value in assay [5] was approximately 3 mg/L.

B4: BGA-5623-mutFc (Fc fusion VH Ab) (Fc fusion)
chain: B3 chain with M28T, L29V, F54K, D62E, S75A, N84S, V99I, Y111T, W112R, L117Q
The Kd is a measure of binding affinity in units of concentration. Low values mean a tighter complex, high ones a looser complex. In turn, B4 came in with a dissociation constant Kd in the assay with human CD137 ECD-mIgG2a [6] of 0.0503 µM. Moreover, the “EC50 (read off the curve)” value in assay [7] was approximately 0.5 mg/L.
